Experimental data from the RNAGym collection of RNA variant scans (doi:10.1101/gr.219683.116).

B1: mRNA-splicing (parent)
chain: AGUUGCUGCUGGGAGCUCCAGCACAGUGAAAUGGACAGAAGGGCAGAGCAA

Variants of: B1
Assay: exon inclusion enrichment index; higher = more inclusion; WT1 exon 5 minigene, HEK293

Variant | exon inclusion enrichment index
G5C C6U G8C C9U U10C G41U G42U | 1.74
G5C C6U G8C C9U U10C G41U G42C | 2.93
G5C C6U G8C C9U U10C G48C | 2.43
G5C C6U G8C C9U U10C G48U | 2.26
G5C C6U G8C C9U U10C G48A | 2.76
G5U C6A U7C G8A U10C | 1.56
G5U C6A U7C G8A U10A | 0.0713
G5C C6U G8C C9U U10C G42A G43U | 3.86
G5C C6U G8C C9U U10C G42A G43A | 4.1
G5C C6U G8C C9U U10C G42A G43C | 4.2
G5C C6U G8C C9U U10C G41C G42C | 2.99
G5C C6U G8C C9U U10C G41C G42U | 2.93
G5C C6U G8C C9U U10C G41C G42A | 2
G5U C6U U7C U10C | 3.03
G5C C6U U7G U10C | 0.82
G5C C6U G8C C9U U10C U27G G28U | 0.00454
G5C C6U G8C C9U U10C U27G G28C | 1.04
G5C C6U G8C C9U U10C U27G G28A | 2.11
G5U C6G U7C G8U C9U | 0.349
G5C C6U G8U C9U U10C | 0.615
G5U G8U C9U A23C C24A | 0.231
G5U G8U C9U A23C C24U | 0.0326
G5U G8U C9U A23C C24G | 0.632
G5C C6U G8C C9U U10C G46U | 1.35

Variant | exon inclusion enrichment index
G5C C6U G8C C9U U10C G46C | 1.62
G5C C6U G8C C9U U10C G46A | 2.05
G5U C6A U7C C9A U10C | 2.8
G5C U7A C9A U10A | 0.367
G5C C6U G8C C9U U10C G46U A47U | 2.05
G5C C6U G8C C9U U10C G46U A47G | 1.76
G5C C6U G8C C9U U10C G46U A47C | 2.75
G5U C6A U7C U10C | 3.2
G5U G8U C9U A30C A31C | 0.347
G5U G8U C9U A30C A31U | 0.139
G5U G8U C9U A30C A31G | 0.406
G5U C6U U7C G8U C9U | 0.154
G5U G8U C9U A35C C36G | 0.125
G5U G8U C9U A35C C36A | 0.0636
G5U G8U C9U A35C C36U | 0.0048
G5C C6U G8C C9U U10C G41A G42A | 1.54
G5C C6U G8C C9U U10C G41A G42C | 2.67
G5C C6U G8C C9U U10C G41A G42U | 1.71
G5U C6G U7A G8U C9A | 0.241
G5U C6G U7A G8U C9U | 0.198
G5C C6U U7C G8A C9U U10C | 1.99
G5U G8U C9U A40U | 0.0931
G5U G8U C9U A40G | 0.0867
G5U G8U C9U A40C | 0.385

Variant | exon inclusion enrichment index
G5U G8U C9U A20G G21C | 0.187
G5U G8U C9U A20G G21U | 0.195
G5U G8U C9U A20G G21A | 0.241
G5U C6A U7C G8U C9U | 0.164
G5U G8U C9U A20C G21A | 0.0355
G5U G8U C9U A20C G21C | 0.0207
G5U G8U C9U A20C G21U | 0.0336
G5U G8U C9U A14U G15U | 0.00524
G5U G8U C9U A14U G15C | 0.0163
G5U G8U C9U A14U G15A | 0.00362
G5U C6U U7G G8U C9U | 0.119
G5U C6U U7G C9A | 0.469
G5C U7C C9A U10C | 0.262
G5C C6U G8C C9U U10C U32G G33A | 0.468
G5C C6U G8C C9U U10C U32G G33C | 1.97
G5C C6U G8C C9U U10C U32G G33U | 0.774
G5U C6G U7G G8U C9U | 0.0864
G5C C6U U7G G8A C9U U10C | 1.49
G5C C6U U7C C9U U10C | 3.09
G5C C6U U7C G8A U10A | 0.137
G5C C6U U7C G8A U10C | 1.77
G5U G8C | 1.34
G5U G8A | 1.23
G5U G8U | 1.33

Variant | exon inclusion enrichment index
G5U C6G G8U C9U | 0.0807
G5C U7C G8A U10C | 0.327
G5C U7C G8A U10A | 0.03
G5U C6G U7C U10C | 2.34
G5U G8U C9U A23C | 0.1
G5U G8U C9U A23G | 0.252
G5U G8U C9U A23U | 0.0459
G5U C6A G8C C9U U10C | 0.611
G5U C6G U7C G8A U10C | 2.27
G5U C6G U7C G8A U10A | 0.1
G5U G8U C9U A14G G15C | 0.0571
G5U G8U C9U A14G G15U | 0.0063
G5U G8U C9U A14G G15A | 0.0466
G5U G8U C9U A25C G26C | 0.215
G5U G8U C9U A25C G26A | 0.504
G5U G8U C9U A25C G26U | 0.328
G5U C6G U7G C9A | 0.0617
G5C C6U G8C C9U U10C U17A C18G | 1.83
G5C C6U G8C C9U U10C U17A C18U | 1.58
G5C C6U G8C C9U U10C U17A C18A | 1.32
G5U G8U C9U A29U A30C | 0.0859
G5U G8U C9U A29U A30G | 0.129
G5U G8U C9U A29U A30U | 0.0146
G5U C6G U7C C9A U10C | 2.41

Variant | exon inclusion enrichment index
G5C C6U G8C U10G | 1.68
G5C C6U G8C U10A | 0.518
G5C C6U G8C U10C | 2.2
G5C C6U U7A G8U C9U U10C | 0.663
G5U G8U C9U A31G U32C | 0.678
G5U G8U C9U A31G U32A | 1.22
G5U G8U C9U A31G U32G | 0.0767
G5U G8U C9U A35U C36G | 0.0125
G5U G8U C9U A35U C36A | 0.00069
G5U G8U C9U A35U C36U | 0.000565
G5U | 0.103
G5U G8U C9U A25G G26A | 0.765
G5U G8U C9U A25G G26U | 0.38
G5U G8U C9U A25G G26C | 0.74
G5C C6U G8C C9U U10C G41C | 3.06
G5C C6U G8C C9U U10C G41A | 1.33
G5C C6U G8C C9U U10C G41U | 2.03
G5U G8C C9U U10C | 0.934
G5C C6U G8C C9U U10C U17G C18A | 2
G5C C6U G8C C9U U10C U17G C18G | 1.96
G5C C6U G8C C9U U10C U17G C18U | 1.64
G5C U7A G8U C9A | 0.077
G5U G8U C9U A31U U32C | 0.282
G5U G8U C9U A31U U32A | 0.00567

Variant | exon inclusion enrichment index
G5U G8U C9U A31U U32G | 0.0359
G5C U7G U10C | 1.34
G5U C6A U7A C9A U10A | 0.0813
G5C C6U G8C C9U U10G | 1.12
G5C U7G G8A U10A | 0.113
G5U G8U C9U A30G A31C | 0.00346
G5U G8U C9U A30G A31G | 0.0186
G5U G8U C9U A30G A31U | 0.0253
G5U C6U U7C G8A U10A | 0.0434
G5U C6U U7C G8A U10C | 1.85
G5C C6U U7C C9A U10C | 3.23
G5U G8U C9U A14C G15C | 0.0167
G5U G8U C9U A14C G15A | 0.0209
G5U G8U C9U A14C G15U | 0.0169
G5C C6U U7G G8C C9U U10C | 1.54
G5C C6U U7A G8A U10A | 0.064
G5C C6U U7C G8U C9U U10C | 1.35
G5C U7G C9A | 1.66
G5C C6U G8C C9U U10C G42U G43A | 3.34
G5C C6U G8C C9U U10C G42U G43U | 2.81
G5C C6U G8C C9U U10C G42U G43C | 1.23
G5C C6U U7A C9U U10C | 0.234
G5U C6G | 0.00229
G5U C6A | 0.00655

Variant | exon inclusion enrichment index
G5U C6U | 0.0058
G5C C6U G8C C9U U10C U27C G28U | 1.2
G5C C6U G8C C9U U10C U27C G28C | 2.52
G5C C6U G8C C9U U10C U27C G28A | 1.89
G5U G8U C9U A29G A30U | 0.0242
G5U G8U C9U A29G A30G | 0.0374
G5U G8U C9U A29G A30C | 0.035
G5U G8U C9U A37C G38U | 0.0543
G5U G8U C9U A37C G38A | 0.157
G5U G8U C9U A37C G38C | 0.175
G5U C6A U7A G8U C9U | 0.0678
G5U C6A U7A G8U C9A | 0.0741
G5C G8C C9U U10C | 0.273
G5C C6U U7G G8A U10A | 0.0911
G5U C6G U7A C9A U10A | 0.147
G5U G8U C9U A29C | 0.0814
G5U G8U C9U A29U | 0.0318
G5U G8U C9U A29G | 0.246
G5C U10C | 1.29
G5C C6U U7A C9A U10A | 0.0605
G5U G8U C9U A39G A40G | 0.00566
G5U G8U C9U A39G A40C | 0.128
G5U G8U C9U A39G A40U | 0.00232
